Reference: PMC8557468, “Evolution-Based Protein Engineering for Antifungal Peptide Improvement” (Molecular Biology and Evolution, 2021)
Positions of bridges follow the written chain, without caps; N, C: chain ends. No end group written: not given here.

What was measured:
mouse erythrocytes = test: Hemolytic assay; assay type: cell-based; conditions: 50 μM peptide, 37 °C, 15 min, absorbance 570 nm; n = 3
Experimental: Hemolysis of mouse erythrocytes by peptides was assayed according to the standard method ([Gao et al. 2009]). In brief, the cells were incubated with various concentrations of peptides (6.25, 12.5, 25, or 50 μM) at 37 °C for 15 min. Absorbance was measured at 570 nm with the SpectraMax i3x Multi-Mode microplate reader (Molecular Devices). The percentage of hemolysis was determined as (Apep−Ablank)/(Atot−Ablank)×100. Ablank and Apep were evaluated in the absence or presence of peptides and 100% hemolysis (Atot) was obtained in the presence of 1% Triton X-100. Meucin-18 ([Gao et al. 2009]) was used positive control.

[1] = n = 3
Experimental: To assess serum stability, peptides were incubated in fresh mouse serum for 0, 12, and 24 h at 37 °C, respectively. Residual activities were measured by inhibition zone assays against C. albicans B16. For thermal stability assay, E15K was incubated at 50 °C for 1–5 days, 80 °C or 100 °C for 5 min. CD analysis and inhibition zone assay were used to evaluate a potential impact of heating on the structure and function of the peptide.

Sequence: DVKSGHYKGPCYHDKNCNGVCRDEGYKSGHCSRWGGACWCDT (disulfide 11-31, 17-38, 21-40) [E15K]
- hemolysis on mouse erythrocytes (mouse erythrocytes): no detectable hemolysis
- serum stability (residual antifungal activity) ([1]; fresh mouse serum, 37 °C, 0, 12 and 24 h, residual activity by inhibition zone against C. albicans B16, 1.0 nmol): retained its complete antifungal activity
- thermal stability (activity and structure after heating) ([1]; in water at 50 °C for 1–5 days or 80–100 °C for 5 min, CD spectra and inhibition zone assay): its activity and structure were not obviously changed
